Non-standard residues stand in square brackets, D forms with d. No end group written: not given here.
Key:
[1] = Serum hydrolysis of hK2 substrates; format: in vitro ADME; conditions: 50% fresh human serum in 50 mM Tris, 0.1 M NaCl, pH 7.8
Description: (§1) Hydrolyses of particular hK2 substrates were carried out at a hK2 concentrations of 1 μg/ml in 50 mM Tris buffer, with 0.1 M NaCl, at pH 7.8. Serum hydrolysis measurements were carried out in 50% fresh human serum in 50 mM Tris buffer, with 0.1 M NaCl, at pH 7.8. The single letter amino acid code was used to designate the peptide sequences used for Table 4. The units FU are arbitrary fluorescence units. The entries “U.D.” were for measurements of less than 0.01 FU/hour.

[2] = biological target: T1, hK2 (Homo sapiens, UniProt P20151); assay: Hydrolysis of hK2 substrates by hK2; format: biochemical; conditions: hK2 1 μg/ml, 50 mM Tris, 0.1 M NaCl, pH 7.8
T1 construct: made in house
Description: as §1

T1 sequence (P20151 25-261): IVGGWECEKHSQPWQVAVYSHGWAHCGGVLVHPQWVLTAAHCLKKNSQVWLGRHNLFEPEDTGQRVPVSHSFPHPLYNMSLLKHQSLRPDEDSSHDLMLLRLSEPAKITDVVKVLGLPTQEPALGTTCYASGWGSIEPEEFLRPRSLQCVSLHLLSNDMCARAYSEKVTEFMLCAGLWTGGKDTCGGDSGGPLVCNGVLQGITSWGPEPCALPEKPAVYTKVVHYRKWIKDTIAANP

| Substance | Serum Hydrolysis Rate ([1]; Table 5) | hK2 Hydrolysis Rate ([2]; Table 5) [FU/hr/m] | Serum Hydrolysis Rate ([1]; Table 4) | hK2 Hydrolysis Rate ([2]; Table 4) [FU/hr/m] |
| --- | --- | --- | --- | --- |
| SEQ ID NO: 113: hK2 substrate peptide, single letter sequence P7-P′1 (GHEQKRRE; listed as Homo sapiens) | UD (The entries “U.D.” were for measurements of less than 0.01 FU/hour) | 1473.8 |  |  |
| SEQ ID NO: 87: hK2 substrate peptide, single letter sequence P7-P′1 (GSNTEKHL; listed as Homo sapiens) |  |  | 0.03 FU/hr | 80.54 |
| SEQ ID NO: 119: hK2 substrate peptide, single letter sequence P6-P′1, dR at P2 (GGKA[dR]RL; listed as Homo sapiens) | 0.06 FU/hr | 494.4 |  |  |
| SEQ ID NO: 115: hK2 substrate peptide, single letter sequence P6-P′1 (GGKANRL; listed as Homo sapiens) | 0.01 FU/hr | 1113.9 |  |  |
| SEQ ID NO: 83: hK2 substrate peptide, single letter sequence P7-P′1 (GPLILSRL; listed as Homo sapiens) |  |  | 0.07 FU/hr | 118.21 |
| SEQ ID NO: 80: hK2 substrate peptide, single letter sequence P7-P′1 (GSNTEKRL; listed as Homo sapiens) |  |  | 0.13 FU/hr | 255.90 |
| SEQ ID NO: 116: hK2 substrate peptide, single letter sequence P6-P′1 (GGKARQL; listed as Homo sapiens) | 0.13 FU/hr | 1021.9 |  |  |
| SEQ ID NO: 107: hK2 substrate peptide, single letter sequence P6-P′1 (GGKHRRL; listed as Homo sapiens) | UD (The entries “U.D.” were for measurements of less than 0.01 FU/hour) | 2079.2 |  |  |
| SEQ ID NO: 99: hK2 substrate peptide, single letter sequence P7-P′1 (GHEQKRRS; listed as Homo sapiens) | UD (The entries “U.D.” were for measurements of less than 0.01 FU/hour) | 2638.5 |  |  |
| SEQ ID NO: 67: hK2 substrate peptide, single letter sequence P7-P′1 (GGGKARRL; listed as Homo sapiens) |  |  | 0.03 FU/hr | 4784.22 |
| SEQ ID NO: 117: hK2 substrate peptide, single letter sequence P6-P′1 (GGKARHL; listed as Homo sapiens) | UD (The entries “U.D.” were for measurements of less than 0.01 FU/hour) | 939.3 |  |  |
| SEQ ID NO: 72: hK2 substrate peptide, single letter sequence P7-P′1 (GKDVSRRL; listed as Homo sapiens) |  |  | 0.08 FU/hr | 2316.12 |
| SEQ ID NO: 98: hK2 substrate peptide, single letter sequence P6-P′1 (GGAKRRL; listed as Homo sapiens) | 0.02 FU/hr | 2773.0 |  |  |
| SEQ ID NO: 110: hK2 substrate peptide, single letter sequence P7-P′1, dL at P′1 (GHEQKRR[dL]; listed as Homo sapiens) | 0.15 FU/hr | 1690.9 |  |  |
| SEQ ID NO: 81: hK2 substrate peptide, single letter sequence P7-P′1 (GSKGHFHL; listed as Homo sapiens) |  |  | 0.10 FU/hr | 171.47 |
| SEQ ID NO: 118: hK2 substrate peptide, single letter sequence P6-P′1 (GGKARNL; listed as Homo sapiens) | 0.25 FU/hr | 828.4 |  |  |
| SEQ ID NO: 109: hK2 substrate peptide, single letter sequence P6-P′1 (GGKAKRL; listed as Homo sapiens) | 0.14 FU/hr | 1788.9 |  |  |
| SEQ ID NO: 77: hK2 substrate peptide, single letter sequence P7-P′1 (GSNTERRL; listed as Homo sapiens) |  |  | UD (The entries “U.D.” were for measurements of less than 0.01 FU/hour) | 592.34 |
| SEQ ID NO: 121: hK2 substrate peptide, single letter sequence P6-P′1 (GGKAHKL; listed as Homo sapiens) | UD (The entries “U.D.” were for measurements of less than 0.01 FU/hour) | 73.2 |  |  |

| Substance | Serum Hydrolysis Rate ([1]; Table 5) | hK2 Hydrolysis Rate ([2]; Table 5) [FU/hr/m] | Serum Hydrolysis Rate ([1]; Table 4) | hK2 Hydrolysis Rate ([2]; Table 4) [FU/hr/m] |
| --- | --- | --- | --- | --- |
| SEQ ID NO: 95: hK2 substrate peptide, single letter sequence P7-P′1 (GHEAKRRL; listed as Homo sapiens) | UD (The entries “U.D.” were for measurements of less than 0.01 FU/hour) | 3324.1 |  |  |
| SEQ ID NO: 86: hK2 substrate peptide, single letter sequence P7-P′1 (GGGKAHHL; listed as Homo sapiens) |  |  | 0.05 FU/hr | 70.15 |
| SEQ ID NO: 76: hK2 substrate peptide, single letter sequence P7-P′1 (GHEQKGRL; listed as Homo sapiens) |  |  | 0.04 FU/hr | 650.80 |
| SEQ ID NO: 93: hK2 substrate peptide, single letter sequence P7-P′1 (GHAQKRRL; listed as Homo sapiens) | 0.08 FU/hr | 3665.1 |  |  |
| SEQ ID NO: 96: hK2 substrate peptide, single letter sequence P6-P′1 (GGQKRRL; listed as Homo sapiens) | 0.02 FU/hr | 3267.4 |  |  |
| SEQ ID NO: 91: hK2 substrate peptide, single letter sequence P7-P′1 (GSYPSSHL; listed as Homo sapiens) |  |  | UD (The entries “U.D.” were for measurements of less than 0.01 FU/hour) | 24.68 |
| SEQ ID NO: 89: hK2 substrate peptide, single letter sequence P7-P′1 (GHEQKGHL; listed as Homo sapiens) |  |  | UD (The entries “U.D.” were for measurements of less than 0.01 FU/hour) | 1.30 |
| SEQ ID NO: 105: hK2 substrate peptide, single letter sequence P6-P′1 (GGKARRL; listed as Homo sapiens) | UD (The entries “U.D.” were for measurements of less than 0.01 FU/hour) | 2171.2 |  |  |
| SEQ ID NO: 68: hK2 substrate peptide, single letter sequence P7-P′1 (GGGKAHRL; listed as Homo sapiens) |  |  | 0.09 FU/hr | 4100.94 |
| SEQ ID NO: 111: hK2 substrate peptide, single letter sequence P6-P′1 (GGKARRS; listed as Homo sapiens) | UD (The entries “U.D.” were for measurements of less than 0.01 FU/hour) | 1609.6 |  |  |
| SEQ ID NO: 123: hK2 substrate peptide, single letter sequence P6-P′1, dR at P2 and P1 (GGKA[dR][dR]L; listed as Homo sapiens) | UD (The entries “U.D.” were for measurements of less than 0.01 FU/hour) | 16.5 |  |  |
| SEQ ID NO: 79: hK2 substrate peptide, single letter sequence P7-P′1 (GKDVSGRL; listed as Homo sapiens) |  |  | 0.05 FU/hr | 242.91 |
| SEQ ID NO: 112: hK2 substrate peptide, single letter sequence P6-P′1 (GGKARKL; listed as Homo sapiens) | UD (The entries “U.D.” were for measurements of less than 0.01 FU/hour) | 1602.4 |  |  |
| SEQ ID NO: 70: hK2 substrate peptide, single letter sequence P7-P′1 (GSKGHFRL; listed as Homo sapiens) |  |  | 0.04 FU/hr | 3029.27 |
| SEQ ID NO: 78: hK2 substrate peptide, single letter sequence P7-P′1 (GSYEERRL; listed as Homo sapiens) |  |  | 0.04 FU/hr | 324.75 |
| SEQ ID NO: 75: hK2 substrate peptide, single letter sequence P7-P′1 (GSYPSSRL; listed as Homo sapiens) |  |  | 0.06 FU/hr | 1456.18 |
| SEQ ID NO: 103: hK2 substrate peptide, single letter sequence P7-P′1 (GAEQKRRL; listed as Homo sapiens) | 0.10 FU/hr | 2325.8 |  |  |
| SEQ ID NO: 108: hK2 substrate peptide, single letter sequence P7-P′1 (GHEQARRL; listed as Homo sapiens) | 0.14 FU/hr | 1956.4 |  |  |

— patent US8450280B2, “Activation of peptide prodrugs by hK2” (GenbSpera, Inc., priority 1999, dated 2013)
